Test [1] has as its target T1, CD30 (human, UniProt P28908 19-595).
T1 construct: whole, on cells; Endogenous antigen on L540 cells
T1 sequence (looked up): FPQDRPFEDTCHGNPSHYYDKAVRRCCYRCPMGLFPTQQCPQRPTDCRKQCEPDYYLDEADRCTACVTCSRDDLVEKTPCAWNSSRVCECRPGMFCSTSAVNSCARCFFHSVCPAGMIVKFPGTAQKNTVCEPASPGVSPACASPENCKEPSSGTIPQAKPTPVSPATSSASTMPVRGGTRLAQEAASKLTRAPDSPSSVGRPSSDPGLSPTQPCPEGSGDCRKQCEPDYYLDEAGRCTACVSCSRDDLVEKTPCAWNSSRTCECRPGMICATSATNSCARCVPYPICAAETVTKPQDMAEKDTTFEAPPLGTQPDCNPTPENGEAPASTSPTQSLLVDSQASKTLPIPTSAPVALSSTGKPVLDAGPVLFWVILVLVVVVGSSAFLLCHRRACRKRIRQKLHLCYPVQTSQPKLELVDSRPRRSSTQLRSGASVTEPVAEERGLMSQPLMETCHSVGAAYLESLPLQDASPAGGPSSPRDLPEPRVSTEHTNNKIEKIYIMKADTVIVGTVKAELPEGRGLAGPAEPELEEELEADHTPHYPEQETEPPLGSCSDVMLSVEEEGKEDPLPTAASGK
Nature of the test: flow cytometry on L540 cells (lacking EGFR but expressing CD30), anti-His Alexa 488 detection. Background: Flow cytometry measures light scatter and fluorescence of single cells or particles in a stream.

The target of test [2] is T1, CD30. Nature of the test: flow cytometry on L540 cells (CD30+, EGFR-), direct fluorescence. The method, then: Flow cytometry analysis was carried out after incubating 4×10⁵ cells with each fusion protein for 20 min at […] in PBS. […] As a control, scFv-Ki4-SNAP was labeled with BG-VistaGreen (black curve) and its binding activity was tested against A431, L540 and CHO-K1 cells (filled gray curves). […] As a control, scFv-Ki4-SNAP labeled with BG-Ce6 (black curve) was tested against A431, L540 and CHO-K1 cells (filled gray curves).
The binding efficiency of the labeled and unlabeled fusion proteins was determined by flow cytometry using a FACSCalibur (Becton & Dickinson, Heidelberg, Germany) and CellQuest software. […] Approximately 4×10⁵ cells were incubated in 200 μL PBS containing 0.5 μg of labeled protein for 20 min on ice. The cells were then washed twice with 1.8 mL PBS in a conventional cell washer and analyzed by flow cytometry.

These results are taken from US20150140022A1 (FRAUNHOFER GESELLSCHAFT ZUR FOERDERUNG DER ANGEWANDTEN …, published 2015).

B1: scFv-425-SNAP (scFv)
scFv: MAQVQLQQSGAELVKPGASVKLSCKASGYTFTSHWMHWVKQRAGQGLEWIGEFNPSNGRTNYNEKFKSKATLTVDKSSSTAYMQLSSLTSEDSAVYYCASRDYDYDGRYFDYWGQGTTVTVSSGGGGSGGGGSGGGGSDIELTQSPAIMSASPGEKVTMTCSASSSVTYMYWYQQKPGSSPRLLIYDTSNLASGVPVRFSGSGSGTSYSLTISRMEAEDAATYYCQQWSSHIFTFGSGTELEIKRHHHHHH
notes: Secreted from HEK-293T cells by an Ig kappa leader and purified by its His6 tag; not shown: SNAP-tag (hAGTm, modified human O6-alkylguanine-DNA alkyltransferase, 20 kDa)
For the molecule B1, in test [1], the binding result is on record as “no binding (tested: 0.5 µg/ml)”.

B2: scFv-425-SNAP-VistaGreen (scFv)
scFv: MAQVQLQQSGAELVKPGASVKLSCKASGYTFTSHWMHWVKQRAGQGLEWIGEFNPSNGRTNYNEKFKSKATLTVDKSSSTAYMQLSSLTSEDSAVYYCASRDYDYDGRYFDYWGQGTTVTVSSGGGGSGGGGSGGGGSDIELTQSPAIMSASPGEKVTMTCSASSSVTYMYWYQQKPGSSPRLLIYDTSNLASGVPVRFSGSGSGTSYSLTISRMEAEDAATYYCQQWSSHIFTFGSGTELEIKRHHHHHH
modifications: BG-Vista Green dye covalently coupled to the active site of the SNAP-tag
notes: not shown: SNAP-tag (hAGTm)
Take B2: the binding result in test [2] is “no binding (tested: 0.5 µg of labeled protein in 200 µL)”.

B3: scFv-425-SNAP-Ce6 (scFv)
scFv: MAQVQLQQSGAELVKPGASVKLSCKASGYTFTSHWMHWVKQRAGQGLEWIGEFNPSNGRTNYNEKFKSKATLTVDKSSSTAYMQLSSLTSEDSAVYYCASRDYDYDGRYFDYWGQGTTVTVSSGGGGSGGGGSGGGGSDIELTQSPAIMSASPGEKVTMTCSASSSVTYMYWYQQKPGSSPRLLIYDTSNLASGVPVRFSGSGSGTSYSLTISRMEAEDAATYYCQQWSSHIFTFGSGTELEIKRHHHHHH
modifications: chlorin e6 through a benzyl-PEG24 linker (BG-PEG24-Ce6) covalently coupled to the active site of the SNAP-tag
notes: not shown: SNAP-tag (hAGTm)
In the case of B3, in test [2], the binding result is given as “no binding (tested: 0.5 µg of labeled protein in 200 µL)”.
